Assay results from the supplement of paper PMC7125110.
± gives the standard error. Variants at the floor of the assay were thinned out.

B1: glmS ribozyme (parent)
chain: AUAAAAGCGCCAGAACUACAGAAAUGUAGUUGACGAGGAGGAGGUUUAUCGAAUUUUCGGCGGAUGCCUCCAAA

Key:
Settings in all cases: with glucosamine-6-phosphate
[1] = variants of: B1; experiment: self-cleavage kobs at 160 uM GlcN6P; higher = faster cleavage; RNA array
Procedure, shortened: (§1)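 In situ transcription by E. coli RNA polymerase produced barcoded ribozyme variants on sequenced MiSeq chips, and a hybridised Cy3 probe tracked them at 37 °C. Glucosamine-6-phosphate was flowed in at 40 μM to 10 mM in HEPES/KCl/Mg(OAc)2 buffer. kcat and KM were taken from weighted Michaelis–Menten fits of kobs values from exponential decay fits.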

[2] = variants of: B1; experiment: self-cleavage kobs at 2500 uM GlcN6P; higher = faster cleavage; RNA array
Procedure, shortened: as §1

[3] = variants of: B1; experiment: self-cleavage kobs at 640 uM GlcN6P; higher = faster cleavage; RNA array
Procedure, shortened: as §1

[4] = variants of: B1; experiment: self-cleavage kobs at 10000 uM GlcN6P; higher = faster cleavage; RNA array
Procedure, shortened: as §1

| Variant | self-cleavage kobs at 160 uM GlcN6P [1] | self-cleavage kobs at 2500 uM GlcN6P [2] | self-cleavage kobs at 640 uM GlcN6P [3] | self-cleavage kobs at 10000 uM GlcN6P [4] |
| --- | --- | --- | --- | --- |
| AUAAAAGCCCCAGGACUACAGAAAUGUAGUUGACGAGGAGGAGGUUUAUCGAAUUUUCUGCGGAUGCCUCCAAA [G9C A14G G59U] | < 1e-05 s⁻¹ |  |  |  |
| AUAAAAGCGUCAGAACUACAGAAAUGUAGUUGACGAGGAGGAGGUCUAUCGAAUUUUCGGCGGAUGCCUUCAAA [C10U U46C C70U] | < 1e-05 s⁻¹ |  |  |  |
| AUAAAAUCGCCAGAACUACAGAAAUGUAGUUGACGAGGAGGAGGUUUAUCGAAUUUUCGGCGGAUGCCCCCAAA [G7U U69C] | < 1e-05 s⁻¹ | < 1e-05 s⁻¹ |  |  |
| AUAAAAGCGCCAGAACUACAGAAAUGUAGUUGACGACGAGGAGGUUUAUCGAAUUUUCGGCGGACGCCUCCAAA [G37C U65C] | < 1e-05 s⁻¹ | < 1e-05 s⁻¹ | < 1e-05 s⁻¹ |  |
| AUAAAAGCGCGAGAACUACAGAAAUGUAGUUGACGCGGAGGAGGUUUAUCGAAUAUUCGGCGGAUGCCUCCAAA [C11G A36C U55A] | < 1e-05 s⁻¹ |  |  |  |
| AUAAAAGCGCCAGAGCUACAGAAAUGUAGUUGACGAGGAGGAGGUUUAUCGAAUAUUCGGCUCAUGCCUCCAAA [A15G U55A G62U G63C] | < 1e-05 s⁻¹ |  | < 1e-05 s⁻¹ |  |
| AUAAAAGCGCCAGACCUACAGAAAUGUAGUUGACUAGGAGGAGGUUUAUCGAAUUUUCGGCGGAUGCCUUCAAA [A15C G35U C70U] | < 1e-05 s⁻¹ |  |  |  |
| AUAAAGGCGCCAGAACUACAGAAAUGUAGUUGACGAGGAGGAGGUUUAUCGACUUUUCGGCGAGUGCCUCCAAA [A6G A53C G63A A64G] | < 1e-05 s⁻¹ |  | < 1e-05 s⁻¹ |  |
| AUAAAAGCGCCAGAACUACAGAAAUGUAGUUGACGAGGAGGAGGAUUAUCGAAUUUCCGGCGGAUGCCUCCAAA [U45A U57C] | 3.83e-05 ± 1.6e-05 s⁻¹ | 0.000268 ± 4.2e-05 s⁻¹ | 3.94e-05 ± 8.9e-06 s⁻¹ | 0.000355 ± 4.8e-05 s⁻¹ |
| AUAAAAGCGCCAGAACUACAGAAAUGUAGUUGACGCGGAGGAGGUAUAUCGAAUUUUCGGCGGAUGCCUCCAAA [A36C U46A] | < 1e-05 s⁻¹ | < 1e-05 s⁻¹ |  | < 1e-05 s⁻¹ |
| AUAAAAUCGCCAGAACUACAGAAAUGUAGUUGACGAGGACGAGUUUCAUCUAAUUUUCGGCGGAUGCCUCCAAA [G7U G40C G44U U47C G51U] | < 1e-05 s⁻¹ | < 1e-05 s⁻¹ |  |  |
| AUAAAAGCGCCAGAACUACAGAAAUGUAGUUGACGAGGAGGAGUUUUAUCGAAUUUUCAACGGAUGCCUCCAAA [G44U G59A G60A] | < 1e-05 s⁻¹ | < 1e-05 s⁻¹ | < 1e-05 s⁻¹ |  |
| AUAAAAGCACCAGAACUACAGAAAUGUAGUCGACGAGGAGGAGGUUUAUCUAAUUUUCUGCGGAUGCGUCCAAA [G9A U31C G51U G59U C68G] | < 1e-05 s⁻¹ |  |  |  |
| AUAAAAGCGCCAGAUCUACAGAAAUGUAGUUGACGAGUAGGAGGUUUAUCGAAUUUUCUGCGGAUGCCUCCAAA [A15U G38U G59U] | < 1e-05 s⁻¹ |  |  |  |
| AUAAAAUCGCCAGAACUACAGAAAUGUAGUUGACGAGGAGCAGGUUUAUCGGAUUUUCGGCGGAUGCCUCCAAA [G7U G41C A52G] | < 1e-05 s⁻¹ | < 1e-05 s⁻¹ | < 1e-05 s⁻¹ | < 1e-05 s⁻¹ |
| AUAAAAGCGCCAGAACUACAGAAAUGUAGUUGACGAGGAAGUGGUUUACCGAAUUUUGGGCGGGUGCCUGCAAA [G40A A42U U49C C58G A64G C70G] | < 1e-05 s⁻¹ | < 1e-05 s⁻¹ | < 1e-05 s⁻¹ |  |
| AUAAAAGGGCUAGAACUACAGAAAUGUAGUUGACGAGGAGGAGGUUUUUCGAAUUUGCGGCGGAUGCCUCUAAA [C8G C11U A48U U57G C71U] | < 1e-05 s⁻¹ |  |  |  |

| Variant | self-cleavage kobs at 160 uM GlcN6P [1] | self-cleavage kobs at 2500 uM GlcN6P [2] | self-cleavage kobs at 640 uM GlcN6P [3] | self-cleavage kobs at 10000 uM GlcN6P [4] |
| --- | --- | --- | --- | --- |
| AUAAAAGCGCCAGAACUACAGAAAUGUAGUUGACGAGGAGGAGAUUUGUCUAAUUUUCAGCGGAUGCCUCCAAA [G44A A48G G51U G59A] | < 1e-05 s⁻¹ | < 1e-05 s⁻¹ |  |  |
| AUAAAAGCGCCAGAACUACAGAAAUGUAGUUGACGAUGAGGAGGUUUAUCGAAUUUUCGGCGGAUGCCUUAAAA [G37U C70U C71A] | < 1e-05 s⁻¹ |  |  |  |
| AUAAAAGCGCCUGAACUACAGAAAUGUAGCUGACGAGGAGGAGGUUUAUCGAAUUUUCGGCGGAUGCCUCCAAA [A12U U30C] | 0.000652 ± 0.00019 s⁻¹ | 0.0109 ± 0.0027 s⁻¹ | 0.00125 ± 0.00032 s⁻¹ |  |
| AUAAAAGCGCCAGAACUACAGAAAUGUAGUUGACGAGGAUGAGGUUUAUCGAAUUUUCGGCGGAUGGCUCCAAA [G40U C67G] | < 1e-05 s⁻¹ |  | < 1e-05 s⁻¹ |  |
| AUAAAAGCGCCAGAACUACAGAAAUGUAGUUGACGAGGAGGAGGUUUAUCGAAAUUUCAGCGGAUGCCUCAAAA [U54A G59A C71A] | < 1e-05 s⁻¹ |  | < 1e-05 s⁻¹ |  |
| AUAAAAGCGCCAGAACUACAGAAAUGUAGUUGACGAGGAGGAGGUGUAAAGAAUUUUCGGCGGGUGCCUCCAAA [U46G U49A C50A A64G] | < 1e-05 s⁻¹ |  | < 1e-05 s⁻¹ |  |
| AUAAAAGCGCCAGAACUACAGAAAUGUAGUUGACGAGGAGAAGGUUUUUCGAAUUUUCGGCGGUUGCCUCAAAA [G41A A48U A64U C71A] | < 1e-05 s⁻¹ | < 1e-05 s⁻¹ |  |  |
| AUAAAAGCGCCAGAACUACAGAAAUGUAGUUGACGAGGAGGAGGUUUAUCGAAUUUUCGUCGGUUGCUUCCAAA [G60U A64U C68U] | < 1e-05 s⁻¹ | < 1e-05 s⁻¹ | < 1e-05 s⁻¹ |  |
| AUAAAAGCGCUUGAACUACAGAAAUGUAGUUGACGAGGAGGAGGUUUAUCGAAUUUUCGGCGGAUGCCUCAAAA [C11U A12U C71A] | 8.52e-05 ± 2.9e-05 s⁻¹ | 0.000457 ± 8.7e-05 s⁻¹ | 0.000232 ± 4.5e-05 s⁻¹ |  |
| AUAAAAGCGCCAGAACUACAGAAAUGUAGUUGACGAGGCGGAGGUUUAUCAAAUUUUCGGCGCAUGCCUCCAAA [A39C G51A G63C] | < 1e-05 s⁻¹ |  | < 1e-05 s⁻¹ |  |
| AUAAAAGCGCCAGAACUACAGAAAUGUAGUUAACGAGGAGGAAGUUUAUCGAAUUUUCGGCGCAUGCCUCCAAA [G32A G43A G63C] | < 1e-05 s⁻¹ | < 1e-05 s⁻¹ |  |  |
| AUAAAAGCGCCGAAACUACAGAAAUGUAGUUGACGAGGAGGAGGCUUACAGCUUUUUCGGCGGAUUCCUCCAAA [A12G G13A U45C U49C C50A A52C A53U G66U] | < 1e-05 s⁻¹ | < 1e-05 s⁻¹ |  |  |
| AUAAAAGCGCCAGAACUACAGAAAUGUAGAUGACCAGGAGGAGGUUUAUCGAAUUUUCGGCGGAUGCCUCCAAA [U30A G35C] | < 1e-05 s⁻¹ | < 1e-05 s⁻¹ | < 1e-05 s⁻¹ | < 1e-05 s⁻¹ |
| AUAAAAGCGCCAGAGCUACAGAAAUGUAGUUGACGAGGAUGAGGUUUAUCGAAUUUUCGGCGGAUGCCUACAAA [A15G G40U C70A] | 4.48e-05 ± 1.3e-05 s⁻¹ | 0.000773 ± 0.00016 s⁻¹ | 0.000328 ± 8e-05 s⁻¹ | 0.000531 ± 0.00014 s⁻¹ |
| AUAAAAGCGCCAGAACUACAGAAAUGUAAUUGACGAGGAGGAGGUUUAUCGAAUUUUCGGCGCAUGCCUGCAAA [G29A G63C C70G] | 7.77e-05 ± 3e-05 s⁻¹ | 7.4e-05 ± 2.1e-05 s⁻¹ | 0.000155 ± 4.1e-05 s⁻¹ |  |
| AUAAAAGCGCCAGAACUACAGAAAUGUAGUUGACUAGGAGUAAGUUUAUCGAAUUUUCGGCGGAUGCCUCCAAA [G35U G41U G43A] | < 1e-05 s⁻¹ | < 1e-05 s⁻¹ | < 1e-05 s⁻¹ |  |
